Assays:
[1] = molecular target: rHA subtype H1 (A/New Caledonia/20/99) (influenza A virus A/New Caledonia/20/99 (H1)) (UniProt Q6WG00); experiment: SPR
[2] = molecular target: rHA subtype H1 (A/New Caledonia/20/99) (Influenza A virus A/New Caledonia/20/1999 (H1N1)) (UniProt Q6WG00); experiment: SPR

Substance | Kd [1] [nM] | koff [1] [s⁻¹] | kon [1] [M⁻¹ s⁻¹] | Kd [2] [nM] | koff [2] [s⁻¹] | kon [2] [M⁻¹ s⁻¹]
CR6261 Fab | 3.8 | 0.0037 | 980000 |  |  | 
CR6323 Fab |  |  |  | 3.9 | 0.00054 | 140000
